Changes are numbered by the printed parent chain. No end group written: not given here.
Columns and labels:
[1] = biological target: human AURKA_(123–403), kinase domain of Aurora kinase A, wild type (human) (UniProt O14965); test: ITC
AURKA_(123–403) W128A = biological target: T1, AURKA_(123–403) W128A (human, UniProt O14965 123-403, W128A); test: fluorescence polarisation
T1 sequence: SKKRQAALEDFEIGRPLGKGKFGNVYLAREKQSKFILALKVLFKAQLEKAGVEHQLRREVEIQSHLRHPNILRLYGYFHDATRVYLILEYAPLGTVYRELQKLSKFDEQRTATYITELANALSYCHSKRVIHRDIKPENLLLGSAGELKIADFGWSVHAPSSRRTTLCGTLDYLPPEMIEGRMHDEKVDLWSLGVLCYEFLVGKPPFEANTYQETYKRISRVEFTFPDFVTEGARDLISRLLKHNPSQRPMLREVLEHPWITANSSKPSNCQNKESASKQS

SEC-MALS = biological target: the molecule itself; test: SEC-MALS
[2] = biological target: T2, AURKA region (AURKA_(123–403)C290,393A) of CEP192-AURKA_(chimera) (human, UniProt O14965 123-403, C290,393A | C290,393A); test: crystal structure
T2 sequence: T1 sequence with A6W, C168A, C271A

## N-terminal MBP-tagged AURKA-BD of human CEP192 residues 440 to 631 (from UniProt Q8TEP8 440-631) (domain or fragment)
[1]
  Kd: 1.2 µM
  stoichiometry N: 1

## EDFRSGSEAFDLIAQDEEEFNKEHQFIQEEN (also: FITC label, position not given here) [FITC-labeled CEP192_(506–536) peptide]
AURKA_(123–403) W128A
  binding result: binds

B1: CEP192-AURKA_(chimera): CEP192_(506–527) fused to AURKA_(123–403)C290,393A without linker residues (other)
chain: EDFRSGSEAFDLIAQDEEEFNKSKKRQWALEDFEIGRPLGKGKFGNVYLAREKQSKFILALKVLFKAQLEKAGVEHQLRREVEIQSHLRHPNILRLYGYFHDATRVYLILEYAPLGTVYRELQKLSKFDEQRTATYITELANALSYCHSKRVIHRDIKPENLLLGSAGELKIADFGWSVHAPSSRRTTLAGTLDYLPPEMIEGRMHDEKVDLWSLGVLCYEFLVGKPPFEANTYQETYKRISRVEFTFPDFVTEGARDLISRLLKHNPSQRPMLREVLEHPWITANSSKPSNAQNKESASKQS
SEC-MALS
  stoichiometry N: 3

## EDFRSGSEAFDLIAQDEEEFNK (domain or fragment) [CEP192 region (residues 506–527) of CEP192-AURKA_(chimera)]
[2]
  binding result: binds

— article PMC10121170 (Science Advances, 2023)
